Columns and labels:
[1] = molecular target: human c-Met on tumor cells (MKN45, NCI-H358, NCI-H69, LS1034, NCI-H716, MDA-MB-468) (human) (UniProt P08581); assay: flow cytometry on NCI-H358 cells
[2] = molecular target: human c-Met on tumor cells (MKN45, NCI-H358, NCI-H69, LS1034, NCI-H716, MDA-MB-468) (human) (UniProt P08581); assay: flow cytometry on LS1034 cells
[3] = molecular target: h.cMet-ECD-His (Human HGF R/c-MET Protein, His Tag, Acrobiosystems MET-H5227) (human) (UniProt P08581); assay: ELISA, h.cMet-ECD-His captured by anti-His-Rabbit Fc
[4] = molecular target: human c-Met on tumor cells (MKN45, NCI-H358, NCI-H69, LS1034, NCI-H716, MDA-MB-468) (human) (UniProt P08581); assay: flow cytometry on NCI-H69 cells
[5] = molecular target: human c-Met on tumor cells (MKN45, NCI-H358, NCI-H69, LS1034, NCI-H716, MDA-MB-468) (human) (UniProt P08581); assay: flow cytometry on NCI-H716 cells

Chain of human c-Met on tumor cells (MKN45, NCI-H358, NCI-H69, LS1034, NCI-H716, MDA-MB-468) (human) (P08581 25-1390): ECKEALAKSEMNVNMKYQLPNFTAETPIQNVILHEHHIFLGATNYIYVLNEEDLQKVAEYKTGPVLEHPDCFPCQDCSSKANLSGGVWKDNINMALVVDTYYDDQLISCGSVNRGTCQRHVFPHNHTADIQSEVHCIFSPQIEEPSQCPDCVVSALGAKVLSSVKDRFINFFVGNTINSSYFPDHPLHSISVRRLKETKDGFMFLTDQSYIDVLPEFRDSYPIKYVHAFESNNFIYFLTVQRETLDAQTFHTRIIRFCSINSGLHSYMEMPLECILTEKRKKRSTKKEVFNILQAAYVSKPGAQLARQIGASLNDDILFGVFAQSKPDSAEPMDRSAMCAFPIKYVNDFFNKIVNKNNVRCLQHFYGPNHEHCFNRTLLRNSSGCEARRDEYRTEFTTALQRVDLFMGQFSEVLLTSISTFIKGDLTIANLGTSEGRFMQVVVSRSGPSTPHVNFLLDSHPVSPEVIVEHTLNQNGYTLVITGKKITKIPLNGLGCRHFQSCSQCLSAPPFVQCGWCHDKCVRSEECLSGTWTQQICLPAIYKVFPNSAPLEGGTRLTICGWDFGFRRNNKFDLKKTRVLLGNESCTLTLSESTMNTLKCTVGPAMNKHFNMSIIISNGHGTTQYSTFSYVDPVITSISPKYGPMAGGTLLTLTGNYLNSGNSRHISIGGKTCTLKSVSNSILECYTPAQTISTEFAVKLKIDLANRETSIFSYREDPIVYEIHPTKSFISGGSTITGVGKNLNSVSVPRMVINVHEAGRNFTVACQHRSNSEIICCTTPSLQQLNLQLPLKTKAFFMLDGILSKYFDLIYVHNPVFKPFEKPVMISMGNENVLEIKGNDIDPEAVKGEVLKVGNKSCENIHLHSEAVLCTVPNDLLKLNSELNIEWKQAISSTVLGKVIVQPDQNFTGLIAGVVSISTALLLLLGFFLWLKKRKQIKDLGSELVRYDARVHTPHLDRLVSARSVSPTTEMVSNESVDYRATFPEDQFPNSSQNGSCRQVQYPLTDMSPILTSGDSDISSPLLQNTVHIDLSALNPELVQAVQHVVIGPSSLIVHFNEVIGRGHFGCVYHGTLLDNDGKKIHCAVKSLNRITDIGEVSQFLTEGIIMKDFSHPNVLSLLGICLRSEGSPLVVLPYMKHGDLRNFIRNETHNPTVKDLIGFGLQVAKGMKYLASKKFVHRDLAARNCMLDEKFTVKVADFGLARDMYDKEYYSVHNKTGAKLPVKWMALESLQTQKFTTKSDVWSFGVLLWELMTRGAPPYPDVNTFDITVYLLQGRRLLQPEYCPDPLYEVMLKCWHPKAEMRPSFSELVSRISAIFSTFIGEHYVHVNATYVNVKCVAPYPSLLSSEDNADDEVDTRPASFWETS
Chain of h.cMet-ECD-His (Human HGF R/c-MET Protein, His Tag, Acrobiosystems MET-H5227) (human) (P08581 25-932): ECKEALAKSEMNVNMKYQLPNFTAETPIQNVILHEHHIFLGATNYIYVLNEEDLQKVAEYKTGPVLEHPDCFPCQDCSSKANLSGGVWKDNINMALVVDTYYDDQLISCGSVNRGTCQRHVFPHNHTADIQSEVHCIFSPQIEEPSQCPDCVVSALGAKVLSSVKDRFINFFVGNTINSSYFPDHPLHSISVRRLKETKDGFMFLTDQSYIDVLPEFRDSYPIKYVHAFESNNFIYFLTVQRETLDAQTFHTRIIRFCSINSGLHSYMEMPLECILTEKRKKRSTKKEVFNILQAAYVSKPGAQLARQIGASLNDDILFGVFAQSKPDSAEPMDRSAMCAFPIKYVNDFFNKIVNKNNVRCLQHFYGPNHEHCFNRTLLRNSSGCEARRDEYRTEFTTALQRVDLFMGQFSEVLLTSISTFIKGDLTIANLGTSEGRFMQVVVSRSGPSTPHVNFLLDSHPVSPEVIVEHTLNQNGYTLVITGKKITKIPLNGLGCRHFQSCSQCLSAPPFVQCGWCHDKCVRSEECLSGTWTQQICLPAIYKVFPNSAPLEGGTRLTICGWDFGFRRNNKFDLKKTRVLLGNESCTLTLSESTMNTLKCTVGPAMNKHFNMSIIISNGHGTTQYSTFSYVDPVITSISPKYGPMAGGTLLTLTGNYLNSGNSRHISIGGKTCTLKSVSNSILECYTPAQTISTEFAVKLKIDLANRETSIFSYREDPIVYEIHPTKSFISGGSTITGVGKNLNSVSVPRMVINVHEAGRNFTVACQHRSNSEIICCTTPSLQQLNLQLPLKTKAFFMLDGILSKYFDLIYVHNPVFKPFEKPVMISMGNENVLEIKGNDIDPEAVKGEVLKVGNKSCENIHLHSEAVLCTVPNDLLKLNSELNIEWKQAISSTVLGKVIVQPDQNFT

EC50 [1]	Maximum signal value [1]	EC50 [2]	Maximum signal value [2]	EC50 [3]	EC50 [4]	Maximum signal value [4]	EC50 [5]	Maximum signal value [5]	Binder
0.917 nM	32400	0.852 nM	8960	2.43 µg/mL	0.212 nM	8210			ABT700-vc-MMAE (DAR9.7) (antibody, INN chains, looked up, V domains shown, vc-MMAE, DAR 9.7) VH: QVQLVQSGAEVKKPGASVKVSCKASGYIFTAYTMHWVRQAPGQGLEWMGWIKPNNGLANYAQKFQGRVTMTRDTSISTAYMELSRLRSDDTAVYYCARSEITTEFDYWGQGTLVTVSS VL: DIVMTQSPDSLAVSLGERATINCKSSESVDSYANSFLHWYQQKPGQPPKLLIYRASTRESGVPDRFSGSGSGTDFTLTISSLQAEDVAVYYCQQSKEDPLTFGGGTKVEIK
							11.6 nM	3740	ABT700-Vc-MMAE (DAR4) (antibody, INN chains, looked up, V domains shown, vc-MMAE, DAR 4) VH: QVQLVQSGAEVKKPGASVKVSCKASGYIFTAYTMHWVRQAPGQGLEWMGWIKPNNGLANYAQKFQGRVTMTRDTSISTAYMELSRLRSDDTAVYYCARSEITTEFDYWGQGTLVTVSS VL: DIVMTQSPDSLAVSLGERATINCKSSESVDSYANSFLHWYQQKPGQPPKLLIYRASTRESGVPDRFSGSGSGTDFTLTISSLQAEDVAVYYCQQSKEDPLTFGGGTKVEIK

— patent US20260216354A1, “ANTI-CMET ANTIBODY, ANTIBODY-DRUG CONJUGATE, AND PREPARATION METHOD THEREFOR AND USE THEREOF” (MEDILINK THERAPEUTICS (SUZHOU) CO., LTD., priority 2022, published 2026)
